Molecular target: recombinant human PD-L1-Fc fusion protein (dimeric form) (human)
Test: SEC; SE-HPLC of the two bought PD-L1 ligands (Supplementary Figure S1); conditions not given

stoichiometry N: 2
Substance: recombinant human PD-L1-Fc fusion protein (dimeric form)

Source: article PMC8386121
